Data taken from US20150258192A1, “COMPOSITIONS AND METHODS FOR PREVENTING OR TREATING CHRONIC LUNG ALLOGRAFT DYSFUNCTION (CLAD) AND IDIOPATHIC PULMONARY FIBROSIS (IPF)” (priority 2014, published 2015).
No end group written: not given here.

Legend:
Test in all cases: Kinase Profiling Assay
Format in all cases: biochemical
Conditions in all cases: peptide 100 μM
MAPKAP-K3(h) = molecular target: T1, MAPKAP-K3(h) (Homo sapiens, UniProt Q16644)
T1 construct: purchased Millipore
Outline: (§1)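 Specificity of MK2 inhibitory peptides is assessed against a panel of 266 human kinases. Kinase transfers a radiolabeled phosphate from ATP onto a positively charged substrate, which is trapped on a negatively charged filter and quantified by scintillation counting against full-activity control; duplicate determinations.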

SAPK2b(h) = molecular target: T2, SAPK2b(h) (Homo sapiens, UniProt Q15759)
T2 construct: purchased Millipore
T2 sequence (Q15759 whole entry): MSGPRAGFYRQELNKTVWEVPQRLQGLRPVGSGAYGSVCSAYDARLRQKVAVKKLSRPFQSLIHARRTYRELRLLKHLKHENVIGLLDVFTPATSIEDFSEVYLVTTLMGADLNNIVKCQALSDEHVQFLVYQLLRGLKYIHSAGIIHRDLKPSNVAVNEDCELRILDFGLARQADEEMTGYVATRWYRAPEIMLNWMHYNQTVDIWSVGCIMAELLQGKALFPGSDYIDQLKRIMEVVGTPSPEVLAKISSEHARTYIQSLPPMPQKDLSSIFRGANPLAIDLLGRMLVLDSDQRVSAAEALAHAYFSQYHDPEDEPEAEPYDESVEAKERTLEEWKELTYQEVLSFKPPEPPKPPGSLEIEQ
Outline: as §1

NEK7(h) = molecular target: T3, NEK7(h) (Homo sapiens, UniProt Q8TDX7)
T3 construct: purchased Millipore
T3 sequence (Q8TDX7 whole entry): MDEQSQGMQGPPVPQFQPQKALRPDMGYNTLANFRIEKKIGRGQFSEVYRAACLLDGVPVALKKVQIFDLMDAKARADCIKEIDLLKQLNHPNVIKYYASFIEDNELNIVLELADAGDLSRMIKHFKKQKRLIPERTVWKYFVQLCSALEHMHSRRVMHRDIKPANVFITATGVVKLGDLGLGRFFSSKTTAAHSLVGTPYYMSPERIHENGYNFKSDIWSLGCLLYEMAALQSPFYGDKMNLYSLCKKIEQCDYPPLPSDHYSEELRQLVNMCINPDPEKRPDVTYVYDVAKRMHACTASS
Outline: as §1

NEK11(h) = molecular target: T4, NEK11(h) (Homo sapiens, UniProt Q8NG66)
T4 construct: purchased Millipore
T4 sequence (Q8NG66 1-645): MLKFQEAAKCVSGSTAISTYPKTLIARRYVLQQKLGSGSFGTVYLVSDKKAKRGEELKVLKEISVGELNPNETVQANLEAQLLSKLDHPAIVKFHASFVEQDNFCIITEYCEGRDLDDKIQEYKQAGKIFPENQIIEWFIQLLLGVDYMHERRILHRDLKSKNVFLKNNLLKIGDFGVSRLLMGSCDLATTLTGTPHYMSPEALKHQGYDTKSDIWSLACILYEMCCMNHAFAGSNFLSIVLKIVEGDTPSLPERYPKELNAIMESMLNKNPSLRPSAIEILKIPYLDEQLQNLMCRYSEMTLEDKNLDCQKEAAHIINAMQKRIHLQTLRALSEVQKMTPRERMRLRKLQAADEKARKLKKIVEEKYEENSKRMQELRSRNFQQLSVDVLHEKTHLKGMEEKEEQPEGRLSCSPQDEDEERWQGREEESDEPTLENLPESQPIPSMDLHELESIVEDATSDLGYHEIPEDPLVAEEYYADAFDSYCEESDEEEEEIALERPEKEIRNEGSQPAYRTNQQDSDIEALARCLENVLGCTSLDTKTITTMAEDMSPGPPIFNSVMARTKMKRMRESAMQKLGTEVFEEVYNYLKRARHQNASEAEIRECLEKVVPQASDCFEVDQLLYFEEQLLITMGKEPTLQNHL
Outline: as §1

IRAK1(h) = molecular target: T5, IRAK1(h) (Homo sapiens, UniProt P51617)
T5 construct: purchased Millipore
T5 sequence (P51617 whole entry): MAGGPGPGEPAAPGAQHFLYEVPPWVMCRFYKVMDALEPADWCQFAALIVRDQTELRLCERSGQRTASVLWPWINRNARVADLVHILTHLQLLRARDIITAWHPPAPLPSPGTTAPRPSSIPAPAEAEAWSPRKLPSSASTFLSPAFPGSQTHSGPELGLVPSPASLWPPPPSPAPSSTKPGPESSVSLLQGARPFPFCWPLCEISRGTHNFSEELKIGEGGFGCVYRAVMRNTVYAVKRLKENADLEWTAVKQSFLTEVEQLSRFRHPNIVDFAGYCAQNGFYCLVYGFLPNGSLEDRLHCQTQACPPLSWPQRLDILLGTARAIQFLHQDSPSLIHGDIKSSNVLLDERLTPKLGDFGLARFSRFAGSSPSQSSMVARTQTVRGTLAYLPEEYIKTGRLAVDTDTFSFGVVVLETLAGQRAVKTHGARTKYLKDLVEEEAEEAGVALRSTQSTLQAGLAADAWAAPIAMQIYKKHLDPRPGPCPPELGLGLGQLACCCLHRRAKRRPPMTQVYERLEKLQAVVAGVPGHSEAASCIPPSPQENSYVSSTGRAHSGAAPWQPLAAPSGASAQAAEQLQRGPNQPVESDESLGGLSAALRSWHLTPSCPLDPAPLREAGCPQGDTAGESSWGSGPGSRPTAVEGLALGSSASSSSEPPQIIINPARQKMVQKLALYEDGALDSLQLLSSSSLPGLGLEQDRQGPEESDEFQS
Outline: as §1

PTK5(h) = PTK5(h) (Homo sapiens, UniProt P42685)
PTK5(h), sequence (P42685 whole entry): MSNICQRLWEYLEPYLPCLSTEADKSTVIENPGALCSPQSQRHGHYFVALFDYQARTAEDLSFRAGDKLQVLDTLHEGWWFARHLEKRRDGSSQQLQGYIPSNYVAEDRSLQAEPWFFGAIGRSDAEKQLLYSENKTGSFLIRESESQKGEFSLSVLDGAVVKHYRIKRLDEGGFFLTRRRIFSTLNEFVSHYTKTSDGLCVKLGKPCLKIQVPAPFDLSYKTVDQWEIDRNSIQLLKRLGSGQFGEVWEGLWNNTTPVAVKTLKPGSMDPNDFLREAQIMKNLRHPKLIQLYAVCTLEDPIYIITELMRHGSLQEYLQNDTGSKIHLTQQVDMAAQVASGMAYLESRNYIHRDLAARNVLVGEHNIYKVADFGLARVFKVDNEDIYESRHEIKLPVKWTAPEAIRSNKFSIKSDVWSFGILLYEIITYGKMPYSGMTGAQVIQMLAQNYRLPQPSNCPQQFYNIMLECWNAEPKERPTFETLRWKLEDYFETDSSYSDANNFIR
Outline: as §1

MINK(h) = molecular target: T6, MINK(h) (Homo sapiens, UniProt Q8N4C8)
T6 construct: purchased Millipore
T6 sequence (Q8N4C8 whole entry): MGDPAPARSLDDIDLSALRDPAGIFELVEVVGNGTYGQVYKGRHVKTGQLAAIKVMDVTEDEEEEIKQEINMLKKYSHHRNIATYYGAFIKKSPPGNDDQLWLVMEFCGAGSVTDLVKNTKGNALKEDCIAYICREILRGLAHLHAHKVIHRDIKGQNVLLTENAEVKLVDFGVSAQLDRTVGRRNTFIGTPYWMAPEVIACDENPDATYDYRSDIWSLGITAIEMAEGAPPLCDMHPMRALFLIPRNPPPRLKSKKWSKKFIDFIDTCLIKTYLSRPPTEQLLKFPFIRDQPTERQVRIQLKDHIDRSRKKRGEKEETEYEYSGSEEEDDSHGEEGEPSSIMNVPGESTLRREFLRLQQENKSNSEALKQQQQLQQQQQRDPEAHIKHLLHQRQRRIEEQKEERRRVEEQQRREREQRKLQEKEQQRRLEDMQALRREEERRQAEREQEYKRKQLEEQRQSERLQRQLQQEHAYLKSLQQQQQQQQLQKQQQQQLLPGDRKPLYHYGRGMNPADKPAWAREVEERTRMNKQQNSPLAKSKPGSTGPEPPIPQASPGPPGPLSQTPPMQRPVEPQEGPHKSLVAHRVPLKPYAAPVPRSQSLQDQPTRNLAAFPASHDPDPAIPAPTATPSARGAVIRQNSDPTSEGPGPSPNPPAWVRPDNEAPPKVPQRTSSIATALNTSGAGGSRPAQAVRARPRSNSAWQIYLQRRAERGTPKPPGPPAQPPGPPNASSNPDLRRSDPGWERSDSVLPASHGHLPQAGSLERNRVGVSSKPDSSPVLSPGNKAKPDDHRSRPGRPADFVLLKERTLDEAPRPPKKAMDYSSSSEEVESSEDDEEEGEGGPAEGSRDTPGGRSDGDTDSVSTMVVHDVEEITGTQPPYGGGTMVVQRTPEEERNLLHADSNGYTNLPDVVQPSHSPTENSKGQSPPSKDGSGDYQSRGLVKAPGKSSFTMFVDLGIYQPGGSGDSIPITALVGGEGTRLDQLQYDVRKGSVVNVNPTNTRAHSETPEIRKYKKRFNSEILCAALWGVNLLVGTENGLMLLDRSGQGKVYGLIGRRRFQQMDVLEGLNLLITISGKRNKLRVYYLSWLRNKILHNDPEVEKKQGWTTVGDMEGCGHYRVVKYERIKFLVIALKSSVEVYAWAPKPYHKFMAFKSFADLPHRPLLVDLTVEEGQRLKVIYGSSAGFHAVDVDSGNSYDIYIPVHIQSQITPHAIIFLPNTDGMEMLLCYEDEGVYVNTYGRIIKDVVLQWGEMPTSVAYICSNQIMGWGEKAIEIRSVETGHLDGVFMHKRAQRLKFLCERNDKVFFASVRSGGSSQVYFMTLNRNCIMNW
Outline: as §1

IKKβ(h) = molecular target: T7, IKKβ(h) (Homo sapiens, UniProt O14920)
T7 construct: purchased Millipore
T7 sequence (O14920 1-756): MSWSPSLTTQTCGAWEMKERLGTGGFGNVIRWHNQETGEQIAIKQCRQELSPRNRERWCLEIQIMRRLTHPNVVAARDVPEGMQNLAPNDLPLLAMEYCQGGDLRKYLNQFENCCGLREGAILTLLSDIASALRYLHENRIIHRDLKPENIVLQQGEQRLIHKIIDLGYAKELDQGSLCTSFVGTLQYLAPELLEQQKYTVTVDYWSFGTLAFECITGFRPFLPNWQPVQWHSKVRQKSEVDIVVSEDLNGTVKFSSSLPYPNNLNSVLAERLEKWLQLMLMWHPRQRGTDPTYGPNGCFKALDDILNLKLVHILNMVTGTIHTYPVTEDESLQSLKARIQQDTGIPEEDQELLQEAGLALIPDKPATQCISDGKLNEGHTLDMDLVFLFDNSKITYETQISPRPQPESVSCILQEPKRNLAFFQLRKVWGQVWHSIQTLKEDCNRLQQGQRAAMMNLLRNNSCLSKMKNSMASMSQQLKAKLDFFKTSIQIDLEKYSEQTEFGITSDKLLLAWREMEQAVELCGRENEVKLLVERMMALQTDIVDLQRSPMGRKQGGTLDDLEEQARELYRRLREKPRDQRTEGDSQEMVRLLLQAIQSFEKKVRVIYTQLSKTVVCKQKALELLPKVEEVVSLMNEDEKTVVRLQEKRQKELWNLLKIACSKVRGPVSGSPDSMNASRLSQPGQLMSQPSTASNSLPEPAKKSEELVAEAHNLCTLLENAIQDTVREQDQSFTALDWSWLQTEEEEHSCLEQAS
Outline: as §1

T1 sequence (Q16644 whole entry): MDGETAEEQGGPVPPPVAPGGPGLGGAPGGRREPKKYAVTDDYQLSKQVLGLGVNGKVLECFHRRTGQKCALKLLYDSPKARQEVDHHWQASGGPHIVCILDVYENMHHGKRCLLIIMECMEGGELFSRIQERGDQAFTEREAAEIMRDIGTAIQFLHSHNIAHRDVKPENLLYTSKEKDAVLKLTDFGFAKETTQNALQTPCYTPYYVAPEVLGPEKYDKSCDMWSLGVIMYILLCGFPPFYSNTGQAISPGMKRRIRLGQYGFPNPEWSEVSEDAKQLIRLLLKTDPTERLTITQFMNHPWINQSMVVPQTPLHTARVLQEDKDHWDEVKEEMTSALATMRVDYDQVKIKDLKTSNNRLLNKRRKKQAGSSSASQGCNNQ

| Sequence | % activity (MAPKAP-K3(h)) [%] | % activity (SAPK2b(h)) [%] | % activity (NEK7(h)) [%] | % activity (NEK11(h)) [%] | % activity (IRAK1(h)) [%] | % activity (PTK5(h)) [%] | % activity (MINK(h)) [%] | % activity (IKKβ(h)) [%] |
| --- | --- | --- | --- | --- | --- | --- | --- | --- |
| FAKLAARLYRKALARQLGVAA [MMI-0300] | 3 | 81 | 84 | 53 | 95 | 132 | 48 | 84 |
| HRRIKAWLKKIKALARQLGVAA (Mammal) [MMI-0500] | 9 | 42 | 89 | 2 | 5 | 96 | 5 | 71 |
| KAFAKLAARLYRKALARQLGVAA [MMI-0400] | 7 | 82 | 87 | 33 | 93 | 129 | 52 | 84 |
| YARAAARQARAKALARQLGVAA [MMI-0100] | 27 | – | – | – | – | 135 | 96 | – |
| YARAAARQARAKALNRQLGVA (Mammal) [MMI-0200] | 39 | 95 | 96 | 95 | 101 | 108 | – | – |
